{"source": "patent US7176293", "proteins": {"B1": {"name": "GST-Chfr (glutathione S-transferase fused to the N-terminus of full-length human Chfr) (protein)", "chain": "MERPEEGKQSPPPQPWGRLLRLGAEEGEPHVLLRKREWTIGRRRGCDLSFPSNKLVSGDHCRIVVDEKSGQVTLEDTSTSGTVINKLKVVKKQTCPLQTGDVIYLVYRKNEPEHNVAYLYESLSEKQGMTQESFEANKENVFHGTKDTSGAGAGRGADPRVPPSSPATQVCFEEPQPSTSTSDLFPTASASSTEPSPAGRERSSSCGSGGGGISPKGSGPSVASDEVSSFASALPDRKTASFSSLEPQDQEDLEPVKKKMRGDGDLDLNGQLLVAQPRRNAQTVHEDVRAAAGKPDKMEETLTCIICQDLLHDCVSLQPCMHTFCAACYSGWMERSSLCPTCRCPVERICKNHILNNLVEAYLIQHPDKSRSEEDVQSMDARNKITQDMLQPKVRRSFSDEEGSSEDLLELSDVDSESSDISQPYVVCRQCPEYRRQAAQPPHCPAPEGEPGAPQALGDAPSTSVSLTTAVQDYVCPLQGSHALCTCCFQPMPDRRAEREQDPRVAPQQCAVCLQPFCHLYWGCTRTGCYGCLAPFCELNLGDKCLDGVLNNNSYESDILKNYLATRGLTWKNMLTESLVALQRGVFLLSDYRVTGDTVLCYCCGLRSFRELTYQYRQNIPASELPVAVTSRPDCYWGRNCRTQVKAHHAMKFNHICEQTRFKN"}}, "key": {"[1]": {"biological_target": "E2 ubiquitin-conjugating enzyme Ubch8, O14933", "sequence (O14933 whole entry)": "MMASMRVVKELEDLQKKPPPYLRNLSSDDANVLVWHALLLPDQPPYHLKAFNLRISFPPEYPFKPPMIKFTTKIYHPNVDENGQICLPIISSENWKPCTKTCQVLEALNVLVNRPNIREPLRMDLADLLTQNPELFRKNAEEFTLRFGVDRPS"}, "[2]": {"biological_target": "E2 ubiquitin-conjugating enzyme UbchD2, P62837", "sequence (P62837 whole entry, looked up)": "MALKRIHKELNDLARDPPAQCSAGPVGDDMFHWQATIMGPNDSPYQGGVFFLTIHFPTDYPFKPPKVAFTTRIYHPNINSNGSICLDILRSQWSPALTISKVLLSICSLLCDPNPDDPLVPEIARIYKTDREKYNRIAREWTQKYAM"}}, "data": [{"protein": "B1", "values": [{"measurement": "ubiquitin-protein ligase activity in vitro (ubiquitination of GST-Chfr, anti-ubiquitin immunoblot)", "setting": "[1]", "result": "did not function in this assay"}, {"measurement": "ubiquitin-protein ligase activity in vitro (ubiquitination of GST-Chfr, anti-ubiquitin immunoblot)", "setting": "[2]", "result": "supported the ubiquitin-protein ligase activity of Chfr"}]}]}
